The target in one assay is T1, human IL7 (human, UniProt P13232 26-177).
T1 sequence (looked up): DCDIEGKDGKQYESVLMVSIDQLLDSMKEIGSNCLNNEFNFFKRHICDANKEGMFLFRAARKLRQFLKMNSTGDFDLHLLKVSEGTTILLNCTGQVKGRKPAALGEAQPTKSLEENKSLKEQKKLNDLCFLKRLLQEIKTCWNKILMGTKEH
As to the kind of experiment: ELISA: plate-coated ligand, Xceptor detected with HRP anti-human IgG-Fc. On the procedure: (§1) Mouse and human ligands (R&D Systems, Minnesota, MN) were added to wells of a 96-well plate at a concentration of 1 μg/ml in PBS (100 μl/well). Plates were incubated at 4° C. overnight. After washing five times with PBS-T, 250 μl Blocking Buffer (PBS-T with 3% BSA) was added to each well, and the plate covered and incubated at room temperature (RT) for 2 hours. Serial three fold dilutions of xceptors were made in Working Buffer (PBS-T with 1% BSA) starting at 300 ng/ml. As a negative control, an irrelevant xceptor was used. The plate was incubated at RT for 1 hour. After washing five times with PBS-T, 100 μl per well of HRP-conjugated anti-human IgG-Fc (1:5000 in Working buffer) was added, the plate covered, and incubated at RT for 1 hour. After washing five times with PBS-T, 100 µl of Quant-Blu substrate (Pierce, Rockford, Ill.) was added to each well. The plate was incubated at RT for 10-30 minutes, and fluorescence measured at 325/420 nm.

For the next assay, the target named is T2, TRU(XT6)-1042.
T2 construct: not trimmed; also called Xceptor TNFRSF1B::anti-HIL6
The assay can be described thus: ELISA: Xceptor captured on anti-human IgG-Fc, sIL-6R added, detected with anti-IL-6R-biotin. The method, then:
Added to each well of a 96-well plate was 100 μl goat anti-human IgG-Fc (ICN Pharmaceuticals, Costa Mesa, Calif.) from a 2 μg/ml solution in PBS, pH 7.2-7.4. The plates were covered, and incubated overnight at 4° C. After washing four times with PBS-T, 250 μl Blocking buffer (PBS-T with 3% BSA or 10% normal goat serum) was added to each well, the plate was covered, and incubated at room temperature for 2 hours (or at 4° C. overnight). […] After washing the plate five times with PBS-T, added in duplicate wells was 100 μl/well recombinant human sIL-6R(R&D Systems) from a […] solution in Working buffer, the plate was covered, and incubated at room temperature for about 1 to 2 hours. After washing the plate five times with PBS-T, added 100 μl/well anti-human IL-6R-biotin (R&D Systems) from a 100 ng/ml solution in Working buffer, the plate was covered, and incubated at room temperature for about 1 to 2 hours. After washing the plate five times with PBS-T, 100 μl per well horse radish peroxidase-conjugated streptavidin (Zymed, San Francisco, Calif.) diluted 1:4,000 in Working buffer was added, the plate was covered, and incubated at room temperature for 30 minutes. After washing the plate six times with PBS-T, 100 μl per well 3,3,5,5-tetramentylbenzidine (TMB) substrate solution (Pierce, Rockford, Ill.) was added for about 3 to 5 minutes and then the reaction was stopped with 50 μl Stop buffer (1N H₂SO₄) per well. The absorbance of each well was read at 450 nm.

A further assay deals with T3, human RANKL (human, UniProt O14788 140-317, limits assumed).
T3 sequence (looked up): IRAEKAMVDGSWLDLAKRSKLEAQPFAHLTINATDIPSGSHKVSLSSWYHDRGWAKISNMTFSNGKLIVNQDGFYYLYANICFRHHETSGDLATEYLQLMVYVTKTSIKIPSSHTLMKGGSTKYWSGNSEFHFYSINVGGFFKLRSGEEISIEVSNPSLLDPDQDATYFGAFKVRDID
As to the kind of experiment: ELISA: plate-coated ligand, Xceptor detected with HRP anti-human IgG-Fc. On the procedure: as §1

In another assay the target is T4, mouse RANKL (mouse, UniProt O35235 158-316, limits assumed).
T4 construct: also called mRANKL
T4 sequence (looked up): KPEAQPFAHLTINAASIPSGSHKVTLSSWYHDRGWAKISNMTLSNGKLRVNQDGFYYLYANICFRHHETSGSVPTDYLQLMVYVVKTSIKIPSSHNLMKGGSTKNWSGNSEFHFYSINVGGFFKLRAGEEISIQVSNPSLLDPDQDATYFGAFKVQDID
Described as above. On the procedure:
as §1

B1: Xceptor comprising a TNFRSF1B ectodomain and an IL7R ectodomain (Fc fusion)
chain: LPAQVAFTPYAPEPGSTCRLREYYDQTAQMCCSKCSPGQHAKVFCTKTSDTVCDSCEDSTYTQLWNWVPECLSCGSRCSSDQVETQACTREQNRICTCRPGWYCALSKQEGCRLCAPLRKCRPGFGVARPGTETSDVVCKPCAPGTFSNTTSSTDICRPHQICNVVAIPGNASMDAVCTSTSPTRSMAPGAVHLPQPVSTRSQHTQPTPEPSTAPSTSFLLPMGPSPPAEGSTGDTGEPKSSDKTHTCPPCPAPEAAGAPSVFLFPPKPKDTLMISRTPEVTCVVVDVSHEDPEVKFNWYVDGVEVHNAKTKPREEQYNSTYRVVSVLTVLHQDWLNGKAYACAVSNKALPAPIEKTISKAKGQPREPQVYTLPPSRDELTKNQVSLTCLVKGFYPSDIAVEWESNGQPENNYKTTPPVLDSDGSFFLYSKLTVDKSRWQQGNVFSCSVMHEALHNHYTQKSLSLSPGQRHNNSSLNTGTQMAGHSPNSESGYAQNGDLEDAELDDYSFSCYSQLEVNGSQHSLTCAFEDPDVNITNLEFEICGALVEVKCLNFRKLQEIYFIETKKFLLIGKSNICVKVGEKSLTCKKIDLTTIVKPEAPFDLSVVYREGANDFVVTFNTSHLQKKYVKVLMHDVAYRQEKDENKWTHVNLSSTKLTLLQRKLQPAAMYEIKVRSIPDHYFKGFWSEWSPSYYFRTPEINNSSGEMDP
notes: also called TNFR × IL7R
For the molecule B1, the binding result in the assay with human IL7 is given as “binds”.

B2: recombinant human sIL-6R (receptor)
chain: LAPRRCPAQEVARGVLTSLPGDSVTLTCPGVEPEDNATVHWVLRKPAAGSHPSRWAGMGRRLLLRSVQLHDSGNYSCYRAGRPAGTVHLLVDVPPEEPQLSCFRKSPLSNVVCEWGPRSTPSLTTKAVLLVRKFQNSPAEDFQEPCQYSQESQKFSCQLAVPEGDSSFYIVSMCVASSVGSKFSKTQTFQGCGILQPDPPANITVTAVARNPRWLSVTWQDPHSWNSSFYRLRFELRYRAERSKTFTTWMVKDLQHHCVIHDAWSGLRHVVQLRAQEEFGQGEWSEWSPEAMGTPWTESRSPPAENEVSTPMQALTTNKDDDNILFRDSANATSLPVQD
notes: Bought; also called human soluble IL6R
For B2, in the assay with TRU(XT6)-1042, the binding result is reported as “no binding”.

B3: Xceptor comprising a TNFRSF1B ectodomain and an OPG ectodomain (Fc fusion)
chain: LPAQVAFTPYAPEPGSTCRLREYYDQTAQMCCSKCSPGQHAKVFCTKTSDTVCDSCEDSTYTQLWNWVPECLSCGSRCSSDQVETQACTREQNRICTCRPGWYCALSKQEGCRLCAPLRKCRPGFGVARPGTETSDVVCKPCAPGTFSNTTSSTDICRPHQICNVVAIPGNASMDAVCTSTSPTRSMAPGAVHLPQPVSTRSQHTQPTPEPSTAPSTSFLLPMGPSPPAEGSTGDTGEPKSSDKTHTCPPCPAPEAAGAPSVFLFPPKPKDTLMISRTPEVTCVVVDVSHEDPEVKFNWYVDGVEVHNAKTKPREEQYNSTYRVVSVLTVLHQDWLNGKAYACAVSNKALPAPIEKTISKAKGQPREPQVYTLPPSRDELTKNQVSLTCLVKGFYPSDIAVEWESNGQPENNYKTTPPVLDSDGSFFLYSKLTVDKSRWQQGNVFSCSVMHEALHNHYTQKSLSLSPGQRHNNSSLNTGTQMAGHSPNSETFPPKYLHYDEETSHQLLCDKCPPGTYLKQHCTAKWKTVCAPCPDHYYTDSWHTSDECLYCSPVCKELQYVKQECNRTHNRVCECKEGRYLEIEFCLKHRSCPPGFGVVQAGTPERNTVCKRCPDGFFSNETSSKAPCRKHTNCSVFGLLLTQKGNATHDNICSGNSESTQKCGIDVTLCEEAFFRFAVPTKFTPNWLSVLVDNLPGTKVNAESVERIKRQHSSQEQTFQLLKLWKHQNKDQDIVKKIIQDIDLCENSVQRHIGHANLTFEQLRSLMESLPGKKVGAEDIEKTIKACKPSDQILKLLSLWRIKNGDQDTLKGLMHALKHSKTYHFPKTVTQSLKKTIRFLHSFTMYKLYQKLFLEMIGNQVQSVKISCL
notes: also called TNFR × OPG
On to B3, for which the binding result in the assay with human RANKL and in the assay with mouse RANKL was “binds” throughout.

For the origin of these results see patent publication US20110152173A1 (EMERGENT PRODUCT DEVELOPMENT SEATTLE, published 2011).
